Substitutions are numbered along the chain they refer to. Where “and” joins values, the source holds several entries; their conditions need not be identical. Equal values may be shown once.
What was measured:
[1] = target: T1, PEGylated SK Lys 257 Cys (SEQ ID NO 48)
T1 chain: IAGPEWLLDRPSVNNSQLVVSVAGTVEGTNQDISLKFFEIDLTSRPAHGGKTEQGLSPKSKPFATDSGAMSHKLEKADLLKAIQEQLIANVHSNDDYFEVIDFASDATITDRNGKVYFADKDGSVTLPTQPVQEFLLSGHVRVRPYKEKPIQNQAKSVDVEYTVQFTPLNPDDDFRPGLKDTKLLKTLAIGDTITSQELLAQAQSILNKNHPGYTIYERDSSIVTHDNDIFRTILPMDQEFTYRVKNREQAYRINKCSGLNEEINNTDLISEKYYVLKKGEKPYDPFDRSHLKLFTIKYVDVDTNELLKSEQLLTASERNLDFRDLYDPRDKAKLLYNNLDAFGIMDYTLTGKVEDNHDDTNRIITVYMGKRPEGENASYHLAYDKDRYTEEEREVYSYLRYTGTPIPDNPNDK

[2] = target: T2, PEGylated SK N255C (SEQ ID NO 46)
T2 chain: T1 chain with N255C, C257K

[3] = target: T3, PEGylated SK L179C (SEQ ID NO 41)
T3 chain: T1 chain with L179C, C257K

[4] = target: T4, PEGylated SK S105C (SEQ ID NO 33)
T4 chain: T1 chain with S105C, C257K

[5] = target: T5, PEGylated SK C-383 Cys (SEQ ID NO 492), Cys at C + 1 position of SK 1-383, G3
T5 chain: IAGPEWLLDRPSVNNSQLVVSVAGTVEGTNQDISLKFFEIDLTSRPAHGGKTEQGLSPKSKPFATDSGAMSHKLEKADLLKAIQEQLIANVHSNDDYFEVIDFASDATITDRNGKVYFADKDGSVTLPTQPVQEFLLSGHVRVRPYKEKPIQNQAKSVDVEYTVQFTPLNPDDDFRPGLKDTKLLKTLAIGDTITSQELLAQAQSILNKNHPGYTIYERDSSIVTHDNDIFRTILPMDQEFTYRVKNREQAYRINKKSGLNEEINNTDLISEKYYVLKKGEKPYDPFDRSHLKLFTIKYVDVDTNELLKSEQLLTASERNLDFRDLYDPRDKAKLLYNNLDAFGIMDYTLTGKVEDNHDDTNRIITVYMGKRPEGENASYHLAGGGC

[6] = target: T6, PEGylated SK D173C (SEQ ID NO 39)
T6 chain: T1 chain with D173C, C257K

[7] = target: T7, native streptokinase nSK (1-414) ATCC 12449 (SEQ ID NO 1)
T7 chain: T1 chain with C257K

B1: human plasminogen (HPG) (protein)
chain: KVYLSECKTGNGKNYRGTMSKTKNGITCQKWSSTSPHRPRFSPATHPSEGLEENYCRNPDNDPQGPWCYTTDPEKRYDYCDILECEEECMHCSGENYDGKISKTMSGLECQAWDSQSPHAHGYIPSKFPNKNLKKNYCRNPDRELRPWCFTTDPNKRWELCDIPRCTTPPPSSGPTYQCLKGTGENYRGNVAVTVSGHTCQHWSAQTPHTHNRTPENFPCKNLDENYCRNPDGKRAPWCHTTNSQVRWEYCKIPSCDSSPVSTEQLAPTAPPELTPVVQDCYHGDGQSYRGTSSTTTTGKKCQSWSSMTPHRHQKTPENYPNAGLTMNYCRNPDADKGPWCFTTDPSVRWEYCNLKKCSGTEASVVAPPPVVLLPDVETPSEEDCMFGNGKGYRGKRATTVTGTPCQDWAAQEPHRHSIFTPETNPRAGLEKNYCRNPDGDVGGPWCYTTNPRKLYDYCDVPQCAAPSFDCGKPQVEPKKCPGRVVGGCVAHPHSWPWQVSLRTRFGMHFCGGTLISPEWVLTAAHCLEKSPRPSSYKVILGAHQEVNLEPHVQEIEVSRLFLEPTRKDIALLKLSSPAVITDKVIPACLPSPNYVVADRTECFITGWGETQGTFGAGLLKEAQLPVIENKVCNRYEFLNGRVQSTELCAGHLAGGTDSCQGDSGGPLVCFEKDKYILQGVTSWGLGCARPNKPGVYVRVSRFVTWIEGVMRNN
Km [1]: 0.4 µM
Km [2]: 0.4 µM
Km [3]: 0.5 µM
Km [4]: 0.5 µM
Km [5]: 0.4 µM
Km [6]: 0.4 µM
Km [7]: 0.4 µM and 0.45 µM
